± gives the uncertainty stated by the source.
B1: RNA-binding E3 ubiquitin-protein ligase MEX3C, residues 325 to 391; numbered along this chain, Q5U5Q3 (parent)
chain: GQTTVQVRVPYRVVGLVVGPKGATIKRIQQQTHTYIVTPSRDKEPVFEVTGMPENVDRAREEIEMHI

Variants of: B1
Test: abundance fitness (aPCA) (normalised: wild type 0, dead -1); higher = more abundant; growth selection in yeast, the domain comes from the species named
Settings: Homo sapiens

**Q.** Which abundance fitness does the source give for GQTTVQRRVPYRVVGLVVGPKGATIKRIQQQTHTYIVTPSRDKEPVFEVTGMPENVDRAREEIEMHI [V7R] here?
**A.** The abundance fitness was -0.851 ± 0.11.

**Q.** For GQTTVQLRVPYRVVGLVVGPKGATIKRIQQQTHTYIVTPSRDKEPVFEVTGMPENVDRAREEIEMHI [V7L], which abundance fitness is on record?
**A.** The abundance fitness was -0.537 ± 0.092.

**Q.** For GQTTVQTRVPYRVVGLVVGPKGATIKRIQQQTHTYIVTPSRDKEPVFEVTGMPENVDRAREEIEMHI [V7T], which abundance fitness is on record?
**A.** The abundance fitness was -0.802 ± 0.21.

**Q.** With GQTTVQARVPYRVVGLVVGPKGATIKRIQQQTHTYIVTPSRDKEPVFEVTGMPENVDRAREEIEMHI [V7A] as the variant, how does the abundance fitness read?
**A.** Its abundance fitness is -0.731 ± 0.11.

**Q.** Which abundance fitness does the source give for GQTTVQIRVPYRVVGLVVGPKGATIKRIQQQTHTYIVTPSRDKEPVFEVTGMPENVDRAREEIEMHI [V7I] here?
**A.** Its abundance fitness is 0.092 ± 0.059.

**Q.** Which abundance fitness does the source give for GQTTVQKRVPYRVVGLVVGPKGATIKRIQQQTHTYIVTPSRDKEPVFEVTGMPENVDRAREEIEMHI [V7K] here?
**A.** Its abundance fitness is -0.47 ± 0.15.

**Q.** Which abundance fitness does the source give for GQTTVQDRVPYRVVGLVVGPKGATIKRIQQQTHTYIVTPSRDKEPVFEVTGMPENVDRAREEIEMHI [V7D] here?
**A.** The abundance fitness was -0.571 ± 0.13.

**Q.** Which abundance fitness does the source give for GQTTVQWRVPYRVVGLVVGPKGATIKRIQQQTHTYIVTPSRDKEPVFEVTGMPENVDRAREEIEMHI [V7W] here?
**A.** The abundance fitness was -0.92 ± 0.21.

**Q.** With GQTTVQCRVPYRVVGLVVGPKGATIKRIQQQTHTYIVTPSRDKEPVFEVTGMPENVDRAREEIEMHI [V7C] as the variant, how does the abundance fitness read?
**A.** The abundance fitness was -0.769 ± 0.18.

**Q.** With GQTTVQQRVPYRVVGLVVGPKGATIKRIQQQTHTYIVTPSRDKEPVFEVTGMPENVDRAREEIEMHI [V7Q] as the variant, how does the abundance fitness read?
**A.** Its abundance fitness is -0.603 ± 0.23.

**Q.** For GQTTVQYRVPYRVVGLVVGPKGATIKRIQQQTHTYIVTPSRDKEPVFEVTGMPENVDRAREEIEMHI [V7Y], which abundance fitness is on record?
**A.** The abundance fitness was -0.717 ± 0.17.

**Q.** With GQTTAQVRVPYRVVGLVVGPKGATIKRIQQQTHTYIVTPSRDKEPVFEVTGMPENVDRAREEIEMHI [V5A] as the variant, how does the abundance fitness read?
**A.** Its abundance fitness is -0.34 ± 0.066.

**Q.** For GQTTFQVRVPYRVVGLVVGPKGATIKRIQQQTHTYIVTPSRDKEPVFEVTGMPENVDRAREEIEMHI [V5F], which abundance fitness is on record?
**A.** Its abundance fitness is -0.363 ± 0.12.

**Q.** For GQTTGQVRVPYRVVGLVVGPKGATIKRIQQQTHTYIVTPSRDKEPVFEVTGMPENVDRAREEIEMHI [V5G], which abundance fitness is on record?
**A.** Its abundance fitness is -0.387 ± 0.053.

**Q.** For GQTTLQVRVPYRVVGLVVGPKGATIKRIQQQTHTYIVTPSRDKEPVFEVTGMPENVDRAREEIEMHI [V5L], which abundance fitness is on record?
**A.** Its abundance fitness is -0.016 ± 0.079.

**Q.** For GQTTKQVRVPYRVVGLVVGPKGATIKRIQQQTHTYIVTPSRDKEPVFEVTGMPENVDRAREEIEMHI [V5K], which abundance fitness is on record?
**A.** The abundance fitness was -0.18 ± 0.13.

**Q.** With GQTTMQVRVPYRVVGLVVGPKGATIKRIQQQTHTYIVTPSRDKEPVFEVTGMPENVDRAREEIEMHI [V5M] as the variant, how does the abundance fitness read?
**A.** The abundance fitness was -0.452 ± 0.21.

**Q.** Which abundance fitness does the source give for GQTTEQVRVPYRVVGLVVGPKGATIKRIQQQTHTYIVTPSRDKEPVFEVTGMPENVDRAREEIEMHI [V5E] here?
**A.** Its abundance fitness is -0.667 ± 0.14.

**Q.** For GQTTDQVRVPYRVVGLVVGPKGATIKRIQQQTHTYIVTPSRDKEPVFEVTGMPENVDRAREEIEMHI [V5D], which abundance fitness is on record?
**A.** Its abundance fitness is -1.05 ± 0.41.

**Q.** For GQTTHQVRVPYRVVGLVVGPKGATIKRIQQQTHTYIVTPSRDKEPVFEVTGMPENVDRAREEIEMHI [V5H], which abundance fitness is on record?
**A.** Its abundance fitness is -0.822 ± 0.2.

**Q.** Which abundance fitness does the source give for GQTTWQVRVPYRVVGLVVGPKGATIKRIQQQTHTYIVTPSRDKEPVFEVTGMPENVDRAREEIEMHI [V5W] here?
**A.** Its abundance fitness is -0.83 ± 0.19.

**Q.** With GQTTIQVRVPYRVVGLVVGPKGATIKRIQQQTHTYIVTPSRDKEPVFEVTGMPENVDRAREEIEMHI [V5I] as the variant, how does the abundance fitness read?
**A.** Its abundance fitness is 0.2 ± 0.054.

**Q.** Which abundance fitness does the source give for GQTTRQVRVPYRVVGLVVGPKGATIKRIQQQTHTYIVTPSRDKEPVFEVTGMPENVDRAREEIEMHI [V5R] here?
**A.** Its abundance fitness is -0.336 ± 0.062.

**Q.** Which abundance fitness does the source give for GQTTSQVRVPYRVVGLVVGPKGATIKRIQQQTHTYIVTPSRDKEPVFEVTGMPENVDRAREEIEMHI [V5S] here?
**A.** The abundance fitness was -0.74 ± 0.13.

**Q.** With GQTTCQVRVPYRVVGLVVGPKGATIKRIQQQTHTYIVTPSRDKEPVFEVTGMPENVDRAREEIEMHI [V5C] as the variant, how does the abundance fitness read?
**A.** The abundance fitness was -0.475 ± 0.11.

**Q.** With GQTTQQVRVPYRVVGLVVGPKGATIKRIQQQTHTYIVTPSRDKEPVFEVTGMPENVDRAREEIEMHI [V5Q] as the variant, how does the abundance fitness read?
**A.** The abundance fitness was -0.294 ± 0.092.

**Q.** For GQTTTQVRVPYRVVGLVVGPKGATIKRIQQQTHTYIVTPSRDKEPVFEVTGMPENVDRAREEIEMHI [V5T], which abundance fitness is on record?
**A.** The abundance fitness was -0.478 ± 0.15.

**Q.** For GQTTVQVDVPYRVVGLVVGPKGATIKRIQQQTHTYIVTPSRDKEPVFEVTGMPENVDRAREEIEMHI [R8D], which abundance fitness is on record?
**A.** Its abundance fitness is -0.666 ± 0.14.

**Q.** Which abundance fitness does the source give for GQTTVQVMVPYRVVGLVVGPKGATIKRIQQQTHTYIVTPSRDKEPVFEVTGMPENVDRAREEIEMHI [R8M] here?
**A.** Its abundance fitness is -0.555 ± 0.1.

**Q.** With GQTTVQVLVPYRVVGLVVGPKGATIKRIQQQTHTYIVTPSRDKEPVFEVTGMPENVDRAREEIEMHI [R8L] as the variant, how does the abundance fitness read?
**A.** The abundance fitness was -0.601 ± 0.08.

**Q.** Which abundance fitness does the source give for GQTTVQVPVPYRVVGLVVGPKGATIKRIQQQTHTYIVTPSRDKEPVFEVTGMPENVDRAREEIEMHI [R8P] here?
**A.** The abundance fitness was -0.18 ± 0.085.

**Q.** With GQTTVQVFVPYRVVGLVVGPKGATIKRIQQQTHTYIVTPSRDKEPVFEVTGMPENVDRAREEIEMHI [R8F] as the variant, how does the abundance fitness read?
**A.** The abundance fitness was -0.666 ± 0.12.

**Q.** For GQTTVQVIVPYRVVGLVVGPKGATIKRIQQQTHTYIVTPSRDKEPVFEVTGMPENVDRAREEIEMHI [R8I], which abundance fitness is on record?
**A.** Its abundance fitness is -0.375 ± 0.16.

**Q.** With GQTTVQVEVPYRVVGLVVGPKGATIKRIQQQTHTYIVTPSRDKEPVFEVTGMPENVDRAREEIEMHI [R8E] as the variant, how does the abundance fitness read?
**A.** Its abundance fitness is -0.52 ± 0.086.

**Q.** For GQTTVQVNVPYRVVGLVVGPKGATIKRIQQQTHTYIVTPSRDKEPVFEVTGMPENVDRAREEIEMHI [R8N], which abundance fitness is on record?
**A.** The abundance fitness was -0.971 ± 0.21.

**Q.** With GQTTVQVKVPYRVVGLVVGPKGATIKRIQQQTHTYIVTPSRDKEPVFEVTGMPENVDRAREEIEMHI [R8K] as the variant, how does the abundance fitness read?
**A.** Its abundance fitness is 0.038 ± 0.074.

**Q.** For GQTTVQVHVPYRVVGLVVGPKGATIKRIQQQTHTYIVTPSRDKEPVFEVTGMPENVDRAREEIEMHI [R8H], which abundance fitness is on record?
**A.** Its abundance fitness is -0.345 ± 0.13.

**Q.** With GQTTVQVGVPYRVVGLVVGPKGATIKRIQQQTHTYIVTPSRDKEPVFEVTGMPENVDRAREEIEMHI [R8G] as the variant, how does the abundance fitness read?
**A.** Its abundance fitness is -0.763 ± 0.077.

**Q.** With GQTTVQVAVPYRVVGLVVGPKGATIKRIQQQTHTYIVTPSRDKEPVFEVTGMPENVDRAREEIEMHI [R8A] as the variant, how does the abundance fitness read?
**A.** The abundance fitness was -0.608 ± 0.072.

**Q.** For GQTTVQVCVPYRVVGLVVGPKGATIKRIQQQTHTYIVTPSRDKEPVFEVTGMPENVDRAREEIEMHI [R8C], which abundance fitness is on record?
**A.** The abundance fitness was -0.675 ± 0.14.
